Test system: MS2 coat protein
Test: apparent KD of MS2 coat protein; higher = weaker reporter binding
Details: Eterna round: R107
Procedure, shortened: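 Apparent KD per design is the median of normalised cluster binding-curve fits. Designed RNA switches transcribed on-chip from Illumina sequencing clusters were titrated with SNAP-549-labelled MS2 coat protein in twofold steps from 0.7 or 1.5 nM to 3 µM, with 0.8–1.5 h down to 10–20 min per step. Buffer: 100 mM Tris-HCl pH 7.5, 80 mM KCl, 4 mM MgCl2, without or with constant ligand.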

[1] = input ligand: theophylline 20 uM
[2] = input ligand: theophylline 2 mM
[3] = input ligand: tryptophan 2.4 mM

Sequence	apparent KD of MS2 coat protein (input ligand: arginine 13.2 mM) [nM]	apparent KD of MS2 coat protein [1] [nM]	apparent KD of MS2 coat protein [2] [nM]	apparent KD of MS2 coat protein [3] [nM]	apparent KD of MS2 coat protein (input ligand: none) [nM]
AACAUGAGGAUCACCCAUGUCCCAUGUGAACGAGGACCGGUACGGCCGCCACUCGACCGAGGCGGCACAUGAGGAUCACCCGCAU [whbob_SS_trypto A_2s14]	161	481	682	–	–
ACGACGCAUACAGAUACCAGUAGCCGAGAAACAUGAGGAUCACCCAUGUCGAGCGACAACUGCCCUUGGCAGCUGUAUGCGUCAG [SSTheo B #12]	8.02	10.3	–	8.02	–
AAUAAUAUGAGGAUCACCCAUAUAAAAGAUACCAGAGUGAUGAUCCUCCCUUGGCAGCUUAACGCUGAUUGAUUACAAUCAGCGA	68.7	85	234	25.5	47.5
CCUUAAUAUAGAAGGAGCGCGCUAACAUGAGGAUCACCCAUGUAAAGGGUUUUUGGCUUAGCGCAGGUAGGUCGCUAUAAGAACC [Arg B Ex t1]	74	162	131	134	128
UUACAUGAGGAUCACCCAUGUCAUAAUGAUACCAGAUAGUUAAUGAUCCCUUGGCAGCAUAAUACCUAGACAUUUAAGUCAUAGG [Aa]	59.5	80	–	56.2	–
GGUUAACAUGAGGAUCACCCAUGUCUUGAUACCAGUCGUUAUCUUGACCCUUGGCAGCAAGAUGACCGUUAGCAGCCGUCUUCUC [theeternabot_sameState_MS2_Theo_A_45]	11.9	16.6	–	13.2	–
AUUAUAGUUUAUAACGAAGUUGAUACAGAAGGAGCGUGAAUAAUCACAGGUAGGUCGCUGAUAAUACAUGAGGAUCACCCAUGUU [JR_Nu_SSArginiA_Sub018]	20.7	31.9	18.9	19.4	20.4
ACACAUGAGGAUCACCCAUGUGCGCUGGAAGGAGCGCAGAAUCAUGCAGGUAGGUCGCCAGUGCCCUUUGAUAAAGGGAAAAGAG [Reor]	52.2	99.7	76.9	64.3	43.3
CUGGCAGGAUGAUCCGCUGUCAGGGCUGAUACCAGCCACGAAAGUGGCCCUUGGCAGCAGCAAACAUGAGGAUCACCCAUGUAAA [(T)''-(M)'-(T)'-(Theo)-(Ms2)_Design2]	54.7	230	–	108	–
ACAUGAGGAUCACCCAUGUAUUACCGGGAAGGAGCGGCCGGAAGGCCAGGUAGGUCGCUCGGCGUCGUGCUGUAAAGCACGACGA [#1 Same State - Arginine A Attempt #27 (HarryS)]	8.95	18.4	12.2	11.6	14
AUACAUGAGGAUCACCCAUGUUAUAGUGAAGGAGCGACAUUUAGGUCAGGUAGGUCGCACUAUUGAAUUAUUAUCCUCUUUUCUU [JR_ExcArginiA_Sub021]	23.1	31.2	23.7	24.7	21.3
GUGGAGACCUCGGCCGCCACUCUCCAUGAGGAUCUCCCAUGUAACAUGAGGAUCACCCAUGUGCUGAGGACCGGGAGGUCCUGAA [Same State Tryptophan B GF 19]	15.7	13.4	11	9.55	9.47
AAUCUGUCGGGUGAUACCAGCCUCGGCACGUCUCGUGCCGAACAUGAGGAUCACCCAUGUGGCCCUUGGCAGCACAUGACAAAUC [Teaton]	71.8	729	–	606	–
CCUCAUGAACAUGAGGAUCACCCAUGUACACGAGGACCGGUACGGCCGCCACUCGAAUAACCUUAAUAUAAAUAAUAAUAAAAGG [5' end split MS2]	14.5	21.5	19.1	45.5	16.7
CAAUAUAUAUGAAGGAGCGUCGAAAAUGGGUAAACAUGAGGAUCACCCAUGUAAAGGGAACGACAGGUAGGUCGCAUAUGUAUUG [AstromonsSSArgB#9]	171	195	261	190	165
AAUUAAACAUCGGCCGCCACUUACUCAUGAGGUAACAACAUGAGGAUCACCCAUGUUUGAGGAUCAAGGACCGGGAUGUAAUUUU [AstrosSSTryB#3]	28	40.3	35.1	–	–
UUGUUAUACGGAAGGAGCGUGUAAGAUUAAGAACAUGAGGAUCACCCAUGUUUUAAGGGAACACAGGUAGGUCGCCGUAUAGUGG [11.P]	16.4	13.2	11.3	14.7	10
GGCGUCGGGCGAAGGAGCGUGAAGACAUGAGGAUCACCCAUGUAGAGGCCCGAACAGGGUUCGCAGGUAGGUCGCGCGCGGUGCC [#1 Same State - Arginine B Attempt #6 (HarryS)]	11.5	24.7	21.4	15.6	13.6

Reference: the supplement of paper PMC9170038
